How the values were obtained:
[1] = Heat stability of protein structure (soluble protein after heating, SDS-PAGE); assay type: physicochemical; conditions: heated for 20 minutes
Method: 3-8) Heat Stability of HALU TM2 Protein Structure Each of 0.2 μg/μL TM2 mutant solutions (10 μL (2 μg)) was heated at room temperature, 50, 60, 70, 80, 90, or 99° C. for 20 minutes. Then, the solution was centrifuged at 15000 rpm for 10 minutes, and the soluble protein in the supernatant was suspended in the same volume of 2×SDS sample buffer (250 mM Tris-HCl, pH 6.8, 20% 2-mercaptoethanol, 20% SDS, 20% glycerol). The suspension was heated at 95° C. for 10 minutes, followed by SDS-PAGE. The protein bands were detected by CBB staining A standard curve was prepared using a quantitative marker (LMW ELECTROPHORESIS CALIBRATION KIT; Pharmacia Biotech) with Las-3000 (FUJIFILM) to quantify the protein bands.

[2] = Isoelectric focusing electrophoresis (pI observed); assay type: physicochemical; conditions: pH 3 to 10 gel
Method: The isoelectric point of each low-pI TM2 was measured by isoelectric focusing electrophoresis using an XCell SureLock Mini-Cell (Invitrogen). In accordance with the instruction, each low-pI TM2 (500 ng) and an IEF sample buffer (pH 3 to 10 (2×), Invitrogen) were mixed and were added to a polyacrylamide gel (pH 3 to 10, IEF Gel, Invitrogen) at a pH ranging from 3 to 10, followed by electrophoresis at a variable voltage of 100 V for 1 hour, 200 V for 1 hour, and 500 V for 45 minutes in this order.
After the electrophoresis, the gel was shaken in a blotting buffer (0.7% acetic acid) for 10 minutes and then was transferred onto a PVDF membrane at 10 V for 1 hour using an XCell ll Blot Module (Invitrogen). The PVDF membrane was subjected to reaction with anti-TM2 rabbit antibody (PCT/W2006/326260) serving as a primary antibody and with alkaline phosphate-labeled anti-rabbit IgG antibody (BIO-RAD) serving as a secondary antibody, followed by detection of bands with Alkaline Phosphatase Substrate Kit II
The isoelectric point of the high-affinity TM2 was measured by isoelectric focusing electrophoresis using an XCell SureLock Mini-Cell (Invitrogen). […] The electric point of TM2 D40N having replacement of the […] amino acid was higher than that of the wild type TM2 also in the isoelectric focusing electrophoresis.
The isoelectric point of HALU TM2 was measured by isoelectric focusing electrophoresis using an XCell SureLock Mini-Cell (Invitrogen). In accordance with the instruction, bands of each HALU TM2 (4 μg) were detected by CBB staining. […] The observed isoelectric point of TM2 D40N was 9.7, and was reduced to 8.9 after introduction of mutation of R104E and was reduced to 7.3 to 7.5 after further introduction of mutation of K141E.

[3] = Biotin-binding test (Biacore 3000, biotin-LC-BSA immobilized); conditions: Biotin-BSA (22.4 Å)
Method: High-purity BSA (Sigma, 2 mg) and NHS-LC-biotin (Pierce, 1 mg) were dissolved in 50 mM sodium borate (pH 8.0, 1 mL) and were incubated at 4° C. for 2 hours. The solution was put into a dialysis tube (MWCO 6-8,000) and was dialyzed with 50 mM sodium carbonate (pH 6.7) at 4° C. overnight. The resulting biotin-LC-BSA conjugate (MW: 67 kDa, 30 μM) was used as a ligand for a Biacore (registered trademark) biosensor.
Biotin-LC-BSA and BSA serving as a negative control were immobilized on CM5 sensor chips by amine coupling method. The amount for immobilization was adjusted to about 200 RU. The chips to which BSA was immobilized were disposed in flow cells 1 and 3, while the chips to which biotin-LC-BSA was immobilized were disposed in flow cells 2 and 4.
Accordingly, seven step measurement (3.125, 6.25, […], 25, 50, 100, and 200 nM) was conducted from the lowest concentration, without recycling steps. The data of BSA as reference was deducted from the data of BSA-LC-biotin. The measurement was performed at 25° C. The resulting sensorgrams were subjected to reaction kinetics analysis using analysis software BIAevaluation ver. 4.1 with a 1:1 binding model to calculate the binding rate constant (ka) and the dissociation rate constant (kd). The dissociation constant (KD) was determined from kd/ka. In the case where no recycling step is employed, the Rmax (maximum amount of binding analyte) decreases at each measurement. Accordingly, in the analysis, the Rmax was calculated by conducting local fitting for each concentration, and only the data of analyte concentrations that were approximated to the 1:1 binding model was employed.
TM2 and HALU TM2 used as analytes were prepared by purification with 2-iminobiotin agarose in accordance with a common method and dialysis with 20MM KPi (pH 7) overnight. The analytes were each adjusted to about 50 μg/mL in 10 mM acetate buffer (pH 5, Biacore).
The immobilization of the ligand and measurement and analysis of specific interaction with the analytes were conducted as in paragraph 2-7-2).

human serum protein = test: Non-specific adsorption of serum protein to HALU TM2-immobilized magnetic beads; assay type: binding; conditions: human serum diluted 800 times, anti-human IgG detection
Method: In this Example, non-specific adsorption of serum protein to HALU TM2-immobilized magnetic beads was investigated.
TM2 D40NR104E and TM2 D40NR104EK141E were bonded covalently to magnetic beads (Dynabeads M-270 Carboxylic Acid, Dynal) by the process described in paragraph 1-9) of Example 1, and the amount of human serum protein adsorbed to the beads was measured. The amount of each HALU TM2 immobilized to the magnetic beads was adjusted to 10 μg/100 μL beads. Human serum (CHEMICON) was diluted 800 times with a PBS buffer, and the HALU TM2-immobilized magnetic beads (50 μL) to which a certain amount of protein was immobilized were added to the diluted human serum, followed by mixing by turning the tube containing the beads upside down at room temperature for 15 minutes. The magnetic beads were washed with a PBS buffer containing 0.1% Tween 20 (PBST, 500 μL) four times and were then subjected to antigen-antibody reaction at room temperature for 15 minutes with HRP-labeled anti-human IgG mouse antibody (100 μL) diluted 5000 times with PBST containing 0.5% BSA. Subsequently, the beads were washed with PBST (500 μL) five times, followed by color development with 1-Step Ultra TMB-ELISA (100 μL). After termination of the color development with 2M sulfuric acid (100 μL), the magnetic beads were collected with a magnet. The absorbance at 450 nm of the supernatant was measured with an Infinite 200 microplate reader.

ka [3]: 1.4 × 10^6
kd ([3]; values in parentheses): (2.9 × 10^−9)
Non-specific binding to serum protein (A450) (human serum protein): low
Non-specific binding to serum protein (A450) (human serum protein; listed as D40NR104E): 0.56
B1: TM2 D40NR104E: TM2 mutant having mutation of D40N and R104E; SEQ ID NO: 22 (protein)
chain: MSDVQSSLTGTWYNELNSKMELTANKDGTLTGKYLSKVGNVYVPYPLSGRYNLQPPAGQGVALGWAVSWENSKIHSATTWSGQFFSESSPVILTQWLLSSSTAEGDVWESTLVGNDSFTKTAPTEQQIAHAQLHCRAPRLK
modifications: Synthetic TM2 D40NR104E
Thermal stability (temp. at which 50% of protein was lost) [1]: 78 °C
pI observed [2]: 8.9
